Measurements as given in IntAct's records for PubMed 35512704.

B1: Speckle-type POZ protein (Homo sapiens), O43791 (parent)
chain: MSRVPSPPPPAEMSSGPVAESWCYTQIKVVKFSYMWTINNFSFCREEMGEVIKSSTFSSGANDKLKWCLRVNPKGLDEESKDYLSLYLLLVSCPKSEVRAKFKFSILNAKGEETKAMESQRAYRFVQGKDWGFKKFIRRDFLLDEANGLLPDDKLTLFCEVSVVQDSVNISGQNTMNMVKVPECRLADELGGLWENSRFTDCCLCVAGQEFQAHKAILAARSPVFSAMFEHEMEESKKNRVEINDVEPEVFKEMMCFIYTGKAPNLDKMADDLLAAADKYALERLKVMCEDALCSNLSVENAAEILILADLHSADQLKTQAVDFINYHASDVLETSGWKSMVVSHPHLVAEAYRSLASAQCPFLGPPRKRLKQS

Variants of: B1
Conditions: with prex2_human PREX2, Q70Z35

Variant	effect of a mutation on the interaction
F102C	with no effect

Variants of: B1
Conditions: with aapk2_human PRKAA2, P54646

Variant	effect of a mutation on the interaction
F102C	with no effect

Variants of: B1
Conditions: with prss8_human PRSS8, Q16651
prss8_human PRSS8, Q16651, sequence (Q16651 whole entry, looked up): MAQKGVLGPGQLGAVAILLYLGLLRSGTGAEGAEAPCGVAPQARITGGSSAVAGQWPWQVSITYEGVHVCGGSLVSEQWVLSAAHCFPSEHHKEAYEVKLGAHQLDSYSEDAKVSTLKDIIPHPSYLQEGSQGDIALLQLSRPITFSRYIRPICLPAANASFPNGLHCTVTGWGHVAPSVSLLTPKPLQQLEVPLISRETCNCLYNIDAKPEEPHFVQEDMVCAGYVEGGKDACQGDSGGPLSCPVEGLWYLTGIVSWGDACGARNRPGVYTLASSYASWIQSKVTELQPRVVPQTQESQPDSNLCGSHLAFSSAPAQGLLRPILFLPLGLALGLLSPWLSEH

Variant	effect of a mutation on the interaction
F102C	with no effect

Variants of: B1
Conditions: with tf65_human RELA

Variant	effect of a mutation on the interaction
F102C	with no effect

Variants of: B1
Conditions: with rictr_human RICTOR

Variant	effect of a mutation on the interaction
F102C	with no effect

Variants of: B1
Conditions: with rnf43_human RNF43, Q68DV7

Variant	effect of a mutation on the interaction
F102C	with no effect

Variants of: B1
Conditions: with ros1_human ROS1, P08922

Variant	effect of a mutation on the interaction
F102C	with no effect

Variants of: B1
Conditions: with rl11_human RPL11, P62913

Variant	effect of a mutation on the interaction
F102C	with no effect

Variants of: B1
Conditions: with rl5_human RPL5, P46777

Variant	effect of a mutation on the interaction
F102C	with no effect

Variants of: B1
Conditions: with rs15_human RPS15, P62841

Variant	effect of a mutation on the interaction
F102C	with no effect

Variants of: B1
Conditions: with rptor_human RPTOR

Variant	effect of a mutation on the interaction
F102C	with no effect

Variants of: B1
Conditions: with rxra_human RXRA

Variant	effect of a mutation on the interaction
F102C	with no effect

Variants of: B1
Conditions: with sdha_human SDHA

Variant	effect of a mutation on the interaction
F102C	with no effect

Variants of: B1
Conditions: with setbp_human SETBP1, Q9Y6X0

Variant	effect of a mutation on the interaction
F102C	with no effect

Variants of: B1
Conditions: with skp2_human SKP2, Q13309

Variant	effect of a mutation on the interaction
F102C	with no effect

Variants of: B1
Conditions: with smad1_human SMAD1, Q15797
smad1_human SMAD1, Q15797, sequence (Q15797 whole entry): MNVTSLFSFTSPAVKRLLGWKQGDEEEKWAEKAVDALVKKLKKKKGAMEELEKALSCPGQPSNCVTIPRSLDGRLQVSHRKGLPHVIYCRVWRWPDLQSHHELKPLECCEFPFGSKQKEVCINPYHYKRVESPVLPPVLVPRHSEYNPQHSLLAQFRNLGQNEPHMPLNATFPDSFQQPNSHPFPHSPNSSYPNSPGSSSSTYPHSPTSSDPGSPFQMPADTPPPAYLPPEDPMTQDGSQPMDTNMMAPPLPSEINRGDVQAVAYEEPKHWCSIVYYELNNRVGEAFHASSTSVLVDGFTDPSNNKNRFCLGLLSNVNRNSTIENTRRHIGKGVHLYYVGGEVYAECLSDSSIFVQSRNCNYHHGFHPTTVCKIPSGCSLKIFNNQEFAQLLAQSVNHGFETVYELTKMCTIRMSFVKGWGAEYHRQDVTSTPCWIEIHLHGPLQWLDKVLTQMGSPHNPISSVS

Variant	effect of a mutation on the interaction
F102C	with no effect

Variants of: B1
Conditions: with smca4_human SMARCA4, P51532
smca4_human SMARCA4, P51532, sequence (P51532 whole entry): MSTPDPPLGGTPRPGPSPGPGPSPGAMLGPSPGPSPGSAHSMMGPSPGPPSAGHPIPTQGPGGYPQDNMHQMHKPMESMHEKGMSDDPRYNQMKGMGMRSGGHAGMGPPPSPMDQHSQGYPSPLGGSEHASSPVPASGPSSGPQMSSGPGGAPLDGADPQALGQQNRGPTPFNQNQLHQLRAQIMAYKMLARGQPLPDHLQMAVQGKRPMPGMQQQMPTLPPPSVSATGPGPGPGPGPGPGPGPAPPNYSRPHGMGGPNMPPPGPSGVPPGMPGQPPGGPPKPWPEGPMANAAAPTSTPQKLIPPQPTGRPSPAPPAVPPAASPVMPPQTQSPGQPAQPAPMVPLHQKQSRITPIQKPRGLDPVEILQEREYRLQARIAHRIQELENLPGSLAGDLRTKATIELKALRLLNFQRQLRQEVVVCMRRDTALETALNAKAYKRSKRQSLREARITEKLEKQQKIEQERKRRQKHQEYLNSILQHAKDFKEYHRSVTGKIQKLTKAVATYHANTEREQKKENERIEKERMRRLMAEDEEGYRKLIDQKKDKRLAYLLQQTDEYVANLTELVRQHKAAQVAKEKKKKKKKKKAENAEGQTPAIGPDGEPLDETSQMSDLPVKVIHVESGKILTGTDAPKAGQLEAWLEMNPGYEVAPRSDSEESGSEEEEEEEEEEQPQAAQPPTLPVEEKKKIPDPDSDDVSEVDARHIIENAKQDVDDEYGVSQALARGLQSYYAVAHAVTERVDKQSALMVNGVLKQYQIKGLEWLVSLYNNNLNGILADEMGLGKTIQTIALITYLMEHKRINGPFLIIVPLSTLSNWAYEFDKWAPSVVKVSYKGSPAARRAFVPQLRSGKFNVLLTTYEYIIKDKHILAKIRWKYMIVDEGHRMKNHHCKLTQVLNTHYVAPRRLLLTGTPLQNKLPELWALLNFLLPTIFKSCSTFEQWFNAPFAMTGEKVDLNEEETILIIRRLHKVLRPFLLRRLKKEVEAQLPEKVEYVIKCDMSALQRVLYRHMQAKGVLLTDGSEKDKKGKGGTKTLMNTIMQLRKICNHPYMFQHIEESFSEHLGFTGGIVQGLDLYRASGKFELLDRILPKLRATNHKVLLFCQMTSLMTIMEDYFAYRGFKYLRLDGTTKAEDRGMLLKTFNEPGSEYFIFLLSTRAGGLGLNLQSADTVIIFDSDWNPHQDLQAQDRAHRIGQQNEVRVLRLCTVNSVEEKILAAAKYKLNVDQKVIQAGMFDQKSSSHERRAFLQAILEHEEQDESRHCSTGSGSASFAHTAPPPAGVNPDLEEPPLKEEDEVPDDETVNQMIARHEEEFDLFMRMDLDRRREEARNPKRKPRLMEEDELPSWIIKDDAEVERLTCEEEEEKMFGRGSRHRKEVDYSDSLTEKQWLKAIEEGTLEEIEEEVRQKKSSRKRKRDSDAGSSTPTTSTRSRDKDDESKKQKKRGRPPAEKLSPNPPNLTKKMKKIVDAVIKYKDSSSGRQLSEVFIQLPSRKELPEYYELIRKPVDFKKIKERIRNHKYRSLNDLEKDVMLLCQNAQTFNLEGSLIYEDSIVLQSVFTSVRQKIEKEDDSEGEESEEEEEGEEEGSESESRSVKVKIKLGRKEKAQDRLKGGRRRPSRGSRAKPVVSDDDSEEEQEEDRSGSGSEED

Variant	effect of a mutation on the interaction
F102C	with no effect

Variants of: B1
Conditions: with snf5_human SMARCB1, Q12824

Variant	effect of a mutation on the interaction
F102C	with no effect

Variants of: B1
Conditions: with smo_human SMO

Variant	effect of a mutation on the interaction
F102C	with no effect

Variants of: B1
Conditions: with socs1_human SOCS1, O15524
socs1_human SOCS1, O15524, sequence (O15524 whole entry): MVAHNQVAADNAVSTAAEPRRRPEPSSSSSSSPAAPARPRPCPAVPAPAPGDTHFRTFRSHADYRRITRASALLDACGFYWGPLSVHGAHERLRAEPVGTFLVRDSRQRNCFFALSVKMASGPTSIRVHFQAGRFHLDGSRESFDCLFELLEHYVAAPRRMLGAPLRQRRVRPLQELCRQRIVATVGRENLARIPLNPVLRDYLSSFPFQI

Variant	effect of a mutation on the interaction
F102C	with no effect

Variants of: B1
Conditions: with sox10_human SOX10, P56693
sox10_human SOX10, P56693, sequence (P56693 whole entry): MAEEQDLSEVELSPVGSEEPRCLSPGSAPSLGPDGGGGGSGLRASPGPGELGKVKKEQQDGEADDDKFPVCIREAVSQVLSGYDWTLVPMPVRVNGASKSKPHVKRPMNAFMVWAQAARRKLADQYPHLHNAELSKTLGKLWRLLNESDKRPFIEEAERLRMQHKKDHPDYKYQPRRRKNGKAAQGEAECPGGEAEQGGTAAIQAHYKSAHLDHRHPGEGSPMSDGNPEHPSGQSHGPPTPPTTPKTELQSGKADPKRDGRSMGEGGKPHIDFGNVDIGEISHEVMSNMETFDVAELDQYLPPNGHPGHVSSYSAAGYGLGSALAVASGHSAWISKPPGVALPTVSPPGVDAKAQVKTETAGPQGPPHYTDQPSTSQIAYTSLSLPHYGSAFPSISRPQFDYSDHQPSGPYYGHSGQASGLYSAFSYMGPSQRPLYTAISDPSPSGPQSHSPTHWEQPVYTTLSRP

Variant	effect of a mutation on the interaction
F102C	with no effect

Variants of: B1
Conditions: with sox2_human SOX2, P48431
sox2_human SOX2, P48431, sequence (P48431 whole entry): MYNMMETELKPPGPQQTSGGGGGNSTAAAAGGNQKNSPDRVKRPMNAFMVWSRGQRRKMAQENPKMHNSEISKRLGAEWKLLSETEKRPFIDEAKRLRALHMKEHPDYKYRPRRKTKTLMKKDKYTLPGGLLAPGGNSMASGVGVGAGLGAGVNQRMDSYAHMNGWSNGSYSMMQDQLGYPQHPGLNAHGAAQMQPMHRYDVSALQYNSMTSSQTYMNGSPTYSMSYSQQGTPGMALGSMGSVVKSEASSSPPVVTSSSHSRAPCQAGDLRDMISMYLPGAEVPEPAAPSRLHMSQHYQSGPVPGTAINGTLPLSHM

Variant	effect of a mutation on the interaction
F102C	with no effect

Variants of: B1
Conditions: with src_human SRC

Variant	effect of a mutation on the interaction
F102C	with no effect

Variants of: B1
Conditions: with whr1_human WHR1, P49842
whr1_human WHR1, P49842, sequence (P49842 whole entry): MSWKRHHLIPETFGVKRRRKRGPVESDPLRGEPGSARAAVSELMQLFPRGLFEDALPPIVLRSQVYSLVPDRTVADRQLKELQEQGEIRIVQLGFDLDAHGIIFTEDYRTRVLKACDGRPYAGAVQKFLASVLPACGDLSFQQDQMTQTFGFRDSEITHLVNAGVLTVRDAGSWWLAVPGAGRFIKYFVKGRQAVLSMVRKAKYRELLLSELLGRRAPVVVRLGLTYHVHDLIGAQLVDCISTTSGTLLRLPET

Variant	effect of a mutation on the interaction
F102C	with no effect

Variants of: B1
Conditions: with stk38_human STK38, Q15208

Variant	effect of a mutation on the interaction
F102C	with no effect

Variants of: B1
Conditions: with eloc_human ELOC

Variant	effect of a mutation on the interaction
F102C	with no effect

Variants of: B1
Conditions: with tfe2_human TCF3, P15923
tfe2_human TCF3, P15923, sequence (P15923 whole entry): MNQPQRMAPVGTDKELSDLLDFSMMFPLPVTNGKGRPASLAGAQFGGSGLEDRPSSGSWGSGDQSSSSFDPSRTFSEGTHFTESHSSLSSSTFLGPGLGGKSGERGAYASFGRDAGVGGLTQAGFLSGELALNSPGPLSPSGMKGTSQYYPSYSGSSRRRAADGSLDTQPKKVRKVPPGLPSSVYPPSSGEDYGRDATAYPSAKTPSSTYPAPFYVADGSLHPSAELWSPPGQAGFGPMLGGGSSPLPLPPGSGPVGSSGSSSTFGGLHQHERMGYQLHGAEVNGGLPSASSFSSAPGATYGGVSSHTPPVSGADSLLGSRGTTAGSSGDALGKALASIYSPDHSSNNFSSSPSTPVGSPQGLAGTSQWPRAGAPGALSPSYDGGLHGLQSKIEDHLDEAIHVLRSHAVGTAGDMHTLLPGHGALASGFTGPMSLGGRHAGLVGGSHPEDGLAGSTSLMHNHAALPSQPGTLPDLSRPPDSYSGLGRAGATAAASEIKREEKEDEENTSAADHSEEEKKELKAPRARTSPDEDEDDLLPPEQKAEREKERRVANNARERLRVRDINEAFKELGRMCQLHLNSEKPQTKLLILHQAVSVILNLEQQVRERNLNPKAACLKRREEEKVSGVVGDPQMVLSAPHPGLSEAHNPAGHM

Variant	effect of a mutation on the interaction
F102C	with no effect

Variants of: B1
Conditions: with tead1_human TEAD1, P28347

Variant	effect of a mutation on the interaction
F102C	with no effect

Variants of: B1
Conditions: with tead3_human TEAD3, Q99594

Variant	effect of a mutation on the interaction
F102C	with no effect

Variants of: B1
Conditions: with tead4_human TEAD4, Q15561

Variant	effect of a mutation on the interaction
F102C	with no effect

Variants of: B1
Conditions: with tgfr2_human TGFBR2, P37173
tgfr2_human TGFBR2, P37173, sequence (P37173 whole entry): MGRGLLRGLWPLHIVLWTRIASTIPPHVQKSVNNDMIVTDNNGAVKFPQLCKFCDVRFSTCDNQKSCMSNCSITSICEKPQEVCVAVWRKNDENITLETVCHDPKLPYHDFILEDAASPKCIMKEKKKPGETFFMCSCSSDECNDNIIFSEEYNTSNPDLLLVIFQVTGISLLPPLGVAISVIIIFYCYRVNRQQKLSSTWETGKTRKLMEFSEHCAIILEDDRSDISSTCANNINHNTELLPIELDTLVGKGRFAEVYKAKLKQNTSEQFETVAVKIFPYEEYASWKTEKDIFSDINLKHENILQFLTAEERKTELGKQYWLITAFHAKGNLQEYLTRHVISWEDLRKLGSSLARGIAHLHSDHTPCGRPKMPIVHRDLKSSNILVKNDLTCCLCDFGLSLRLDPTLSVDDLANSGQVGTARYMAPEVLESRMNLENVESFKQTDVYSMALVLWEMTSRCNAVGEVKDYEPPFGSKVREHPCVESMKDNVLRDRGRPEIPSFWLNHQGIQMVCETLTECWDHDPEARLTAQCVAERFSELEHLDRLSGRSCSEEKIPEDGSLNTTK

Variant	effect of a mutation on the interaction
F102C	with no effect

Variants of: B1
Conditions: with tnr14_human TNFRSF14, Q92956

Variant	effect of a mutation on the interaction
F102C	with no effect

Variants of: B1
Conditions: with tsc2_human TSC2, P49815

Variant	effect of a mutation on the interaction
F102C	with no effect

Variants of: B1
Conditions: with tshr_human TSHR

Variant	effect of a mutation on the interaction
F102C	with no effect

Variants of: B1
Conditions: with vegfa_human VEGFA

Variant	effect of a mutation on the interaction
F102C	with no effect

Variants of: B1
Conditions: with vhl_human VHL

Variant	effect of a mutation on the interaction
F102C	with no effect

Variants of: B1
Conditions: with wee1_human WEE1, P30291

Variant	effect of a mutation on the interaction
F102C	with no effect

Variants of: B1
Conditions: with wwtr1_human WWTR1, Q9GZV5

Variant	effect of a mutation on the interaction
F102C	with no effect

Variants of: B1
Conditions: with xpo1_human XPO1, O14980

Variant	effect of a mutation on the interaction
F102C	with no effect

Variants of: B1
Conditions: with igf1r_human IGF1R

Variant	effect of a mutation on the interaction
F102C	causing an interaction

Variants of: B1
Conditions: with etv1_human ETV1, P50549

Variant	effect of a mutation on the interaction
F102C	disrupting interaction strength

Variants of: B1
Conditions: with pk3ca_human PIK3CA

Variant	effect of a mutation on the interaction
F102C	increasing interaction strength
